Numbered stars: 1 amine (or outer) side, 2 acyl side, 3 side chain; on linkers, the order of the positions; unused ones are H or OH. Bridge positions count the residues as written; N and C are the ends. Side chains are listed from the residue outwards. Ends that are not written are not given here. * marks the point of attachment. C20 diacid = O=C(O)CCCCCCCCCCCCCCCCCCC(=O)*; γGlu = O=C(O)[C@H](CCC(=O)[*:2])N[*:1]; AEEA = NCCOCCOCC(=O)O
Tests used:
[1] = biological target: T1, rat calcitonin receptor (rat, UniProt P32214 25-516); assay: SPA competition with 125I-calcitonin, membranes of BHK cells with rat calcitonin receptor (Assay VIII)
T1 construct: whole, on cells; Used as membranes prepared from the transfected cells; also called rCTR; rat calcitonin (a) receptor
T1 sequence (looked up): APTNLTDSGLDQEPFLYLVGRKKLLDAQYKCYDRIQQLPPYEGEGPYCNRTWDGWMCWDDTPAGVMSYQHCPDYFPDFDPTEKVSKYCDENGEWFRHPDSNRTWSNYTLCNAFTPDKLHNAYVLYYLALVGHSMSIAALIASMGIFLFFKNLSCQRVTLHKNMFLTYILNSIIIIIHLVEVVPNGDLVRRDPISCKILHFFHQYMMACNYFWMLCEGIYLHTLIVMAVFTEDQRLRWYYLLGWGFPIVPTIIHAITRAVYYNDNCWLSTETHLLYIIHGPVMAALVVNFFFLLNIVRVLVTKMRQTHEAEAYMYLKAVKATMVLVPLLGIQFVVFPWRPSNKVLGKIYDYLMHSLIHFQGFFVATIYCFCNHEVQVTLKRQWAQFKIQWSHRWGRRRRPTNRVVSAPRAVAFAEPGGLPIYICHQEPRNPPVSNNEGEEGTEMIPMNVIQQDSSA

[2] = biological target: T2, rat amylin receptor (rat calcitonin receptor + rat RAMP 3) (rat, UniProt P32214 25-516; Q9JJ73 23-147); assay: SPA competition with 125I-rat amylin, membranes of BHK cells with rat calcitonin receptor + rat RAMP3 (Assay VI)
T2 construct: whole, on cells; Used as membranes prepared from the transfected cells; also called rAmylin-R; rat amylin 3(a) receptor
T2 sequence (looked up) 1: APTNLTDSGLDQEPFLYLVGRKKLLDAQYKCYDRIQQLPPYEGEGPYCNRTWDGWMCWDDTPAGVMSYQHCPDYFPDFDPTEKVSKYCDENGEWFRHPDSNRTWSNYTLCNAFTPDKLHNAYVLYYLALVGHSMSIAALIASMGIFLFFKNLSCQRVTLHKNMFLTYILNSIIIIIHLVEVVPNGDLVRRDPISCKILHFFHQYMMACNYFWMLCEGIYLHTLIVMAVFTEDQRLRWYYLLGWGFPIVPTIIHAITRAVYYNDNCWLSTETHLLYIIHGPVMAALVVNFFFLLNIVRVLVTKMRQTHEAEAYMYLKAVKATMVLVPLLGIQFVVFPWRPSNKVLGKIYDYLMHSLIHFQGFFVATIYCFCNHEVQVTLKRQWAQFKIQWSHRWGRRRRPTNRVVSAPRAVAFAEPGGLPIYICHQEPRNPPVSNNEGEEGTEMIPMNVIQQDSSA
T2 sequence (looked up) 2: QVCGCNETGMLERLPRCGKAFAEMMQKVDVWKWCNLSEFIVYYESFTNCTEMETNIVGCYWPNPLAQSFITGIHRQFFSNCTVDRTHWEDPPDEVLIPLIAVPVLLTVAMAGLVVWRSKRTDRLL

IC50 [1]: 0.038 µM | IC50 [2]: 0.000383 µM
B1: N^ε1-[2-[2-[2-[[(4S)-4-carboxy-4-(19-carboxynonadecanoylamino)butanoyl]amino]ethoxy]ethoxy]acetyl]-[Arg17,Pro21,Pro27,Arg35]-h-amylin (peptide)
peptide: K([AEEA-γGlu-C20 diacid])CNTATCATQRLANFLRHSSPNFGAIPSSTNVGSRTY-NH2
modifications: disulfide 2-7; N-terminus assumed
SMILES: CC[C@H](C)[C@H](NC(=O)[C@H](C)NC(=O)CNC(=O)[C@H](Cc1ccccc1)NC(=O)[C@H](CC(N)=O)NC(=O)[C@@H]1CCCN1C(=O)[C@H](CO)NC(=O)[C@H](CO)NC(=O)[C@H](Cc1c[nH]cn1)NC(=O)[C@H](CCCNC(=N)N)NC(=O)[C@H](CC(C)C)NC(=O)[C@H](Cc1ccccc1)NC(=O)[C@H](CC(N)=O)NC(=O)[C@H](C)NC(=O)[C@H](CC(C)C)NC(=O)[C@H](CCCNC(=N)N)NC(=O)[C@H](CCC(N)=O)NC(=O)[C@@H](NC(=O)[C@H](C)NC(=O)[C@@H]1CSSC[C@H](NC(=O)[C@@H](N)CCCCNC(=O)COCCOCCNC(=O)CC[C@H](NC(=O)CCCCCCCCCCCCCCCCCCC(=O)O)C(=O)O)C(=O)N[C@@H](CC(N)=O)C(=O)N[C@@H]([C@@H](C)O)C(=O)N[C@@H](C)C(=O)N[C@@H]([C@@H](C)O)C(=O)N1)[C@@H](C)O)C(=O)N1CCC[C@H]1C(=O)N[C@@H](CO)C(=O)N[C@@H](CO)C(=O)N[C@H](C(=O)N[C@@H](CC(N)=O)C(=O)N[C@H](C(=O)NCC(=O)N[C@@H](CO)C(=O)N[C@@H](CCCNC(=N)N)C(=O)N[C@H](C(=O)N[C@@H](Cc1ccc(O)cc1)C(N)=O)[C@@H](C)O)C(C)C)[C@@H](C)O
notes: Derivative of human amylin; also called compound 38

From US20140087995A1 (published 2014)
